In this test the target is dGvpC (Ana GvpC with SG-… at the C-terminus, encoded in the acoustic sensor gene for ClpXP) (Anabaena flos-aquae) (UniProt P09413). Briefly: cell-based or functional assay.

The record followed here is patent US20210060185A1.

Sequence of dGvpC (Ana GvpC with SG-… at the C-terminus, encoded in the acoustic sensor gene for ClpXP) (Anabaena flos-aquae) (P09413 1-193, tags or fused parts left off): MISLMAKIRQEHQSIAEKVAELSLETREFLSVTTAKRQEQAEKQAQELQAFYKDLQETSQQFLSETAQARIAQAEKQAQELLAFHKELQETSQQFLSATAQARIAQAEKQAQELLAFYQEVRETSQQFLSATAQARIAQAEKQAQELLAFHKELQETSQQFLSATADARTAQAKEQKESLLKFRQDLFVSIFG

Substance “ClpXP of E. coli Nissle 1917 (native, or ClpX and ClpP cloned from the Nissle genome under the pBAD promoter) (from UniProt P0A6H1 2-424; P0A6G7 15-207) (enzyme)” had a hydrostatic collapse pressure midpoint of intact WT Nissle cells, ASGClpXP against ARGWT of 160 kPa; a hydrostatic collapse pressure midpoint of ΔClpXP Nissle cells with against without ClpXP induction of 160 kPa; a nonlinear ultrasound contrast of live WT Nissle cells, ASGClpXP against ARGWT of 13 dB; a nonlinear ultrasound contrast of ΔClpXP Nissle cells with against without ClpXP induction of 6.7 dB.
